According to US20220387441A1, “TARGETING THE NEUROLIGIN-3 BINDING PARTNER CSPG4 IN GLIOMA” (The Board of Trustees of the Leland Stanford Junior …, priority 2021, published 2022):

Columns and labels:
CTLA4 = target: T1, CTLA4 (Homo sapiens, UniProt P16410); settings: cited from earlier work
T1 construct: CTLA4 is expressed exclusively on T cells; host or cells: patients' T cells (endogenous)
T1 sequence (P16410 36-223): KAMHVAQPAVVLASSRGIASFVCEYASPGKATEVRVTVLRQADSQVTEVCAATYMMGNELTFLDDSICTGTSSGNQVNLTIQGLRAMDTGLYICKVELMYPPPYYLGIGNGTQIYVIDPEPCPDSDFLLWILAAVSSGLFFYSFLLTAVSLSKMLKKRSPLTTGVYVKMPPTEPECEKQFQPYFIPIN

DIPG6 xenografts = assay: DIPG6 xenograft survival; assay type: in vivo; settings: 40 mg/kg IP, 5 days with 2 days of rest, P130 through P158, DIPG6 cells in cortices of NSG mice
Method: Dosing of 40 mg/kg was administered via IP injection for 5 days with 2 days of rest in between cycles. Mice were then followed until death.

[1] = tested on: CSPG4 shedding from glioma cells (DIPG neurospheres 13pons, 21); assay: CSPG4 Release Assay (western blot of conditioned medium); assay type: cell-based, human
Source text: (§1) Here, we provide evidence that both NLGN3 and CSPG4 ectodomains are in fact cleaved in response to neuronal activity, but that these events are separated in space and time. NLGN3 undergoes ADAM-mediated cleavage in response to glutamate-mediated depolarization, freeing the NLGN3 ectodomain to bind the LNS domains of CSPG4 and induce its subsequent cleavage from the membrane (FIG. 2A). High-grade glioma cells constitutively shed proteins such as CSPG4 and NLGN3 into their culture medium. […] These proteins represent cleaved ectodomains, given their failure to react with a C-terminal CSPG4 antibody (FIG. 2B). We also note that these proteins appear as smears by western blot in large part due to the effects of chondroitin sulfate as treatment of conditioned medium with Chondroitinase ABC collapses these smears into sharp bands (FIG. 2B).
CSPG4 Release Assay: DIPG neurospheres (13pons, 21) were cultured in defined medium (1:1 Neurobasal and DMEM F12, 1× Glutamax, 1× pen/strep, 1×MEM NEAA, 1× sodium pyruvate, 1×HEPES, 1×B-27 (w/o vit A) supplement, heparin, EGF, FGF, PDGF-AA, PDGF-BB) at 37C, 5% CO2. Cells were pelleted at 250G×5 min, medium aspirated, and washed in HBSS w/o calcium and magnesium. […] Dissociated and washed cells were resuspended in HBSS plus Ca+/Mg+ and counted. […]

DIPG13p xenografts = assay: DIPG13p xenograft survival; assay type: in vivo; settings: 30 mg/kg oral gavage daily (5 days on/2 days off) until death, DIPG 13p cells in pons of NSG mice
Source text: Blockade of CSPG4 RIP via gamma secretase inhibition attenuates glioma growth. Given that CSPG4 is the largest and most structurally complex member of the surfaceome with several validated binding partners and numerous reported functions, we sought to disrupt signaling events downstream of CSPG4 RIP. To that end, we xenografted human glioma cells into pons of immune-deficient mice and treated them with gamma secretase inhibitor to prevent CSPG4 RIP. The treatment of murine OPCs with a gamma secretase inhibitor accelerated their differentiation in vitro as assessed by MBP staining and in line with reports from others.
Treatment was continued daily (5 days on/2 days off) until death with mice receiving 30 mg/kg of gamma secretase inhibitor or matched vehicle by oral gavage.

[2] = tested on: mouse-derived optic pathway glioma cells; assay: AN2 shedding from mouse-derived optic pathway glioma cells; assay type: cell-based; settings: mouse-derived optic pathway glioma cells incubated with human sNLGN3
Source text: as §1

primary mouse OPCs = assay: AN2 shedding from primary mouse OPCs; assay type: cell-based; settings: primary mouse OPCs incubated with human sNLGN3
Source text: as §1

Tremelimumab: fully humanized CTLA4 antibody
toxicity (CTLA4; 10 mg/kg monthly regimen versus 15 mg/kg every 3 months, randomized clinical trial): doubled | sustained plasma level in patients with the majority of responses (CTLA4; at one month): > 30 µg/mL | dose at which objective responses were evident (CTLA4; single antibody infusion, doses 0.01 mg/kg to 15 mg/kg, patients): ≥ 3 mg/kg

COC(=O)N1CC2(CC2)C[C@H](C(=O)NO)[C@H]1C(=O)N1CC=C(c2ccccc2)CC1 [Aderbasib]
mouse survival (DIPG6 xenografts): extends mouse survival

CNC(=O)[C@@H](NC(=O)[C@H](CCCc1ccccc1)[C@H](C)N(O)C=O)C(C)(C)C [G1254023X]
shedding of CSPG4 into culture medium (baseline ADAM-mediated cleavage) ([1]; pre-treatment of glioma cells with ADAM10i, 4 uM, 15 minutes): prevents shedding

CC(C)(C(=O)NCC(F)(F)C(F)(F)F)C(=O)N[C@@H]1C(=O)Nc2ccccc2-c2ccccc21 [RO4929097]
mouse survival (DIPG13p xenografts): extends mouse survival

B1: recombinant NLGN3 ectodomains: recombinant human NLGN3 ectodomain, produced in house (protein, UniProt Q9NZ94 38-709, looked up)
extracellular domain: QAPAPTVNTHFGKLRGARVPLPSEILGPVDQYLGVPYAAPPIGEKRFLPPEPPPSWSGIRNATHFPPVCPQNIHTAVPEVMLPVWFTANLDIVATYIQEPNEDCLYLNVYVPTEDVKRISKECARKPNKKICRKGGSGAKKQGEDLADNDGDEDEDIRDSGAKPVMVYIHGGSYMEGTGNMIDGSILASYGNVIVITLNYRVGVLGFLSTGDQAAKGNYGLLDQIQALRWVSENIAFFGGDPRRITVFGSGIGASCVSLLTLSHHSEGLFQRAIIQSGSALSSWAVNYQPVKYTSLLADKVGCNVLDTVDMVDCLRQKSAKELVEQDIQPARYHVAFGPVIDGDVIPDDPEILMEQGEFLNYDIMLGVNQGEGLKFVEGVVDPEDGVSGTDFDYSVSNFVDNLYGYPEGKDTLRETIKFMYTDWADRDNPETRRKTLVALFTDHQWVEPSVVTADLHARYGSPTYFYAFYHHCQSLMKPAWSDAAHGDEVPYVFGVPMVGPTDLFPCNFSKNDVMLSAVVMTYWTNFAKTGDPNKPVPQDTKFIHTKANRFEEVAWSKYNPRDQLYLHIGLKPRVRDHYRATKVAFWKHLVPHLYNLHDMFHYTSTTTKVPPPDTTHSSHITRRPNGKTWSTKRPAISPAYSNENAQGSWNGDQDAGPLLVENPRDYSTELS
modifications: extracellular domain
notes: recombinant human NLGN3 ectodomain, produced in house
ADAM-mediated CSPG4 cleavage ([1]; glioma cells exposed to 100 nM recombinant human NLGN3 ectodomain, 1 hour): augments this ADAM-mediated CSGP4 cleavage | shedding of murine AN2 [2]: augment the shedding of murine AN2 | shedding of murine AN2 (primary mouse OPCs): augment the shedding of murine AN2
